Here are results for 23 molecules from patent US20190218553, “VON WILLEBRAND FACTOR (VWF)-TARGETING AGENTS AND METHODS OF USING THE SAME” (DUKE UNIVERSITY, published 2019).

For data set [1], the target named is T1, von Willebrand factor (VWF) (Homo sapiens, UniProt P04275 P04275:764-2813). The data set can be described thus: filter; Bmax 86%; 2 mM CaCl2, 37 C. Conditions: Haematologic Technologies Inc, label: 5'-32P. How it is done: (§1) Affinity constants (Kd values) were determined using double-filter nitrocellulose filter binding assays (Rusconi et al, Thromb. Haemost. $4:841-848 (2000)). All binding studies were performed in binding buffer F (20 mM HEPES, pH 7.4, 150 mM NaCl, 2 mM CaCl₂, and 0.01% BSA) at 37° C. Human purified VWF (factor VIII free) was purchased from Haematologic Technologies Inc. (Essex Junction, Vt.) and used in the double-filter nitrocellulose filter binding assay to determine the Kd of the aptamers. Briefly, RNA were end-labeled at the 5′ end with T4 polynucleotide kinase (New England Biolabs, Beverly, Mass.) and [γ³²P] ATP (Amersham Pharmacia Biotech, Piscataway, N.J.) (Fitzwater and Polisky, Methods Enzymol. 267:275-301 (1996)). End-labeled RNA was diluted in binding buffer F, heat denatured at 65° C. for 5 minutes, and subsequently equilibrated at 37° C. Direct binding was performed by incubating trace ³²P-RNA with varying concentrations of VWF protein in binding buffer F at 37° C. for 5 min. The fraction of the nucleic acid-protein complex which bound to the nitrocellulose membrane was quantified with a phosphorimager (Molecular Dynamics, Sunnyvale, Calif.). Non-specific binding of the radiolabeled nucleic acid was subtracted out of the binding such that only specific binding remained (Wong and Lohman, Proc. Natl. Acad. Sci. USA 90:5428-5432 (1993)).

In data set [2] the target is T1, von Willebrand factor (VWF). Briefly: filter; Bmax 82%; 2 mM CaCl2, 37 C. Conditions: Haematologic Technologies Inc, label: 5'-32P. Here is the method:
as §1

The target is the same in data set [3]. Briefly: filter; Bmax 81%; 2 mM CaCl2, 37 C. The note with it: tags: factor VIII free, Haematologic Technologies Inc; label: 5'-32P. How it is done:
as §1

The target is the same in data set [4]. Briefly: filter; Bmax 78%; 2 mM CaCl2, 37 C. Conditions: Haematologic Technologies Inc, label: 5'-32P. How it is done: as §1
The target is the same in data set [5]. The data set can be described thus: filter; Bmax 80%; 2 mM CaCl2, 37 C. The note with it: Haematologic Technologies Inc, label: 5'-32P. How it is done:
as §1

[6] abbreviates: tags: factor VIII free human purified VWF.

B1: T59 vrt9 (ssRNA)
RNA: ACGAACUGCCCUCGAUCGACGCACAGACGU
modifications: rAmCrGmAmAmCfUrGfCfCfCfUmCmGmAmUmCmGrAfCrGfCrAmCmAmGmAfCmGfU-idT
Broadly, the Kd is the equilibrium constant for the complex coming apart. For the molecule B1, binding in data set [1] (tags: factor VIII free) was characterised by a dissociation constant (Kd) of 1 nM.

B2: T59 vrt19 (ssRNA)
RNA: ACGAACUGCCCUCGAUCGACGCACAGACGU
modifications: mAmCmGmAmAmCmUmGfCfCfCmUmCmGmAmUmCmGmAfCrGfCmAmCmAmGmAmCmGfU-idT
B2: the Kd in data set [2] (tags: factor VIII free) was found to be 5.5 nM.

B3: T70 (ssRNA)
RNA: ACGAACUGCCCUCAUUAUUGACGCACAGACGU
modifications: 2'-F C and U; 2'-OH A and G; 3' idT
Molecule B3 had a Kd in data set [3] of 13 nM.

B4: T94 vrt6 (ssRNA)
RNA: ACGAACUGCCCUCUUUUUUGACGCACAGACGU
modifications: 2'-F C9,C10,C11,C22,G23,C24,U32; rest 2'-OMe; 3' idT
In data set [4] (setting [6]), B4 gave a dissociation constant (Kd) of 42 nM.

B5: T87 (ssRNA)
RNA: ACGAACUGCCCUCUUUCAUGACGCACAGACGU
modifications: 2'-F C and U; 2'-OH A and G; 3' idT
With B5, in data set [1] (tags: factor VIII free), the equilibrium dissociation constant (Kd) was 11 nM.

B6: T59 (ssRNA)
RNA: ACGAACUGCCCUCGAUCGACGCACAGACGU
modifications: 2'-F C and U; 2'-OH A and G; 3' idT
In data set [4] (tags: factor VIII free), B6 registered a Kd of 8.8 nM.

B7: T25 vrt16 (ssRNA)
RNA: ACGAACUGCCCUCAGCUACUUUCAUGUUGCUGACGCACAGACGU
modifications: rAfCmGrArAfCfUrGfCfCfCfUfCrArGfCfUrAfCfUfUfUfCrAfUrGfUfUrGfCfUrGrAfCrGfCrAfCrArGrAmCrGfU-idT
In data set [4] (tags: factor VIII free), B7 yielded an equilibrium dissociation constant (Kd) of 4.3 nM.

B8: DTRI-006 (ssRNA)
RNA: ACGAACUGCCCUCGAUCGACGCACAGACGU
modifications: mAmCmGmAmAmCmUmGfCfCfCmUmCmGmAmUmCmGmAfCrGfCmAmCmAmGmAmCmGfUidT
In the case of B8, binding in data set [5] (tags: factor VIII free) was put at a Kd of 7 nM.

B9: T79 vrt1 (ssRNA)
RNA: ACGAACUGCCCUCGAUCGACGCACAGACGUUUUUU
modifications: rAfCrGmAmAmCfUrGfCfCfCfUmCmGmAmUmCmGrAfCrGfCrAmCmAmGmAfCrGfUmUmUmUmUmU-idT
In turn, B9 returned a dissociation constant Kd in data set [4] (tags: factor VIII free) of 1.9 nM.

B10: T79 vrt2 (ssRNA)
RNA: ACGAACUGCCCUCGAUCGACGCACAGACGUUUUUU
modifications: mAmCmGmAmAmCmUmGfCfCfCmUmCmGmAmUmCmGmAfCrGfCmAmCmAmGmAmCmGfUmUmUmUmUmU-idT
With B10, the equilibrium dissociation constant (Kd) in data set [3] was 24 nM.

B11: T93 vrt4 (ssRNA)
RNA: ACGAACUGCCCUCUAUUUCAUUUGACGCACAGACGU
modifications: 2'-F C9,C10,C11,C26,C28; ribo G27; rest 2'-OMe; 3' idT
Consider B11, for which the equilibrium dissociation constant (Kd) in data set [2] (setting [6]) amounted to 5.7 nM.

B12: T93 vrt6 (ssRNA)
RNA: ACGAACUGCCCUCUAUUUCAUUUGACGCACAGACGU
modifications: 2'-F C9,C10,C11,C26,G27,C28,U36; rest 2'-OMe; 3' idT
Take B12: in data set [2] (setting [6]), the dissociation constant Kd was determined as 33 nM.

B13: T59 vrt8 (ssRNA)
RNA: ACGAACUGCCCUCGAUCGACGCACAGACGU
modifications: mAfCrGmAmAmCfUrGfCfCfCfUmCmGmAmUmCmGrAfCrGfCrAmCmAmGmAfCrGfU-idT
Regarding B13, in data set [1] (tags: factor VIII free), binding was put at a Kd of 1.8 nM.

B14: T59 vrt14 (ssRNA)
RNA: ACGAACUGCCCUCGAUCGACGCACAGACGU
modifications: mAmCmGmAmAmCfUrGfCfCfCmUmCmGmAmUmCmGmAfCrGfCrAmCmAmGmAmCmGfU-idT
In data set [3], B14 came in with a Kd of 1.7 nM.

B15: T59 vrt25 (ssRNA)
RNA: ACGAACUGCCCUCGAUCGACGCACAGACGU
modifications: 2'-F U7,C9,C10,C11,U12,C20,C22,U30; ribo G8,A19; rest 2'-OMe; 3' idT
Regarding B15, in data set [1] (setting [6]), the Kd worked out at 76 nM.

B16: T82 vrt7 (ssRNA)
RNA: ACGAACUGCCCUCGAUCGACGCACAGACGUACCCG
modifications: 2'-F C9,C10,C11,C20,G21,C22; rest 2'-OMe; 3' idT
The molecule B16 yielded a Kd in data set [4] (setting [6]) of 268 nM.

B17: T95 (ssRNA)
RNA: ACGAACUGCCCUCUUUUUUUUGACGCACAGACGU
modifications: 2'-F C and U; 2'-OH A and G; 3' idT
In data set [3], B17 displayed a Kd of 12 nM.

B18: T86 vrt1 (ssRNA)
RNA: ACGAACUGCCCUCGUUUCAUCGACGCACAGACGU
modifications: 2'-F C2,U7,C9,C10,C11,U12,C24,C26,C32,U34; ribo A1,G3,G8,A23,G25,A27,G33; rest 2'-OMe; 3' idT
For the molecule B18, in data set [5] (setting [6]), binding was characterised by a dissociation constant (Kd) of 0.9 nM.

B19: T59 vrt10 (ssRNA)
RNA: ACGAACUGCCCUCGAUCGACGCACAGACGU
modifications: rAfCmGmAmAmCfUrGfCfCfCfUmCmGmAmUmCmGrAfCrGfCrAmCmAmGmAmCrGfU-idT
On to B19, for which the affinity in data set [3], expressed as Kd, was 0.4 nM.

B20: T68 (ssRNA)
RNA: ACGAACUGCCCUCUUAUGACGCACAGACGU
modifications: 2'-F C and U; 2'-OH A and G; 3' idT
Take B20: binding in data set [2] (tags: factor VIII free) was put at a Kd of 16 nM.

B21: T89 vrt2 (ssRNA)
RNA: ACGAACUGCCCUCGUAUUAUUUCGACGCACAGACGU
modifications: 2'-F C9,C10,C11,C26,C28,U36; ribo G27; rest 2'-OMe; 3' idT
The molecule B21 showed a Kd in data set [5] (setting [6]) of 12 nM.

B22: T89 vrt10 (ssRNA)
RNA: ACGAACUGCCCUCGUAUUAUUUCGACGCACAGACGU
modifications: 2'-F G8,C9,C10,C11,A25,C26,G27,C28,A29; rest 2'-OMe; 3' idT
In turn, B22 had a Kd in data set [1] (setting [6]) of 548 nM.

B23: T59 vrt6 (ssRNA)
RNA: ACGAACUGCCCUCGAUCGACGCACAGACGU
modifications: mAmCmGmAmAmCfUrGfCfCfCfUmCmGmAmUmCmGrAfCrGfCrAmCmAmGmAmCmGfU-idT
Regarding B23, in data set [2] (tags: factor VIII free), the equilibrium dissociation constant (Kd) worked out at 0.5 nM.
